Measured values: article PMC10810282
pKd: −log10 of the molar value.

Assays:
[1] = target: separate RPA2 WH-domain (pTYB12-WH), recombinant; test: MST; 100 nM target labelled on cysteines (RED-…), concentration gradient of unlabelled ligand; Monolith NT.115, premium coated capillaries, 40% MST power; 50 mM Tris-HCl pH 7.5, 100 mM NaCl, 1 mM DTT, 0.05% Tween-20, 0.5 mg/ml BSA; KD from at least three runs
[2] = target: mouse UNG2 wild type, recombinant (mUNG2-pET28a) (mouse) (UniProt P97931); test: as above

“mouse UNG2 wild type, recombinant (mUNG2-pET28a) (from UniProt P97931-1 1-306) (domain or fragment)” showed a pKd [1] of 6.07.

“separate RPA2 WH-domain (pTYB12-WH), recombinant” gave a pKd [2] of 5.90.
